The values that follow come from paper PMC3326387.

A word on the Kd: it is the equilibrium constant for the complex coming apart. Lower therefore signals a tighter complex.

The assay concerns the target ecto-FLRT3 (immobilized for SPR) (UniProt Q8BGT1). Put plainly: SPR. For orientation: SPR reads the build-up and loss of mass on a sensor chip optically.
Sequence of UniProt Q8BGT1 (Q8BGT1 29-528): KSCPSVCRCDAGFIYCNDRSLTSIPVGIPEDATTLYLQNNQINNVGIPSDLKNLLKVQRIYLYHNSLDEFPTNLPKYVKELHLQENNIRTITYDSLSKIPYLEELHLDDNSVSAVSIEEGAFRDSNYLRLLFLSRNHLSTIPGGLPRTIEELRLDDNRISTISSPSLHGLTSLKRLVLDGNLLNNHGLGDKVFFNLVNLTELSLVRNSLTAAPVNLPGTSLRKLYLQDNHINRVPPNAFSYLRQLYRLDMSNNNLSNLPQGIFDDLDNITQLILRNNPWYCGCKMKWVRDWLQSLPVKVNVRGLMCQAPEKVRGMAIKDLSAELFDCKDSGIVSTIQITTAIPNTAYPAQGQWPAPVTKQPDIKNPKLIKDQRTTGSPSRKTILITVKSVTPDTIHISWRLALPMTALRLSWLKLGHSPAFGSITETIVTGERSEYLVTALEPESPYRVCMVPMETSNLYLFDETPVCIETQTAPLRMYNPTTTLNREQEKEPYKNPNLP

Substance “ecto-LPHN3-Fc (from UniProt Q80TS3 20-1537) (Fc fusion)” came in with a Kd of 14.7 nM.
